By EC50 (read off the curve) is commonly meant the midpoint of the concentration-response curve. Low values mean greater potency, high ones weaker potency.

Three molecules from US20210292396A1 (INTERNATIONAL AIDS VACCINE INITIATIVE, published 2021) can be followed below.

Test [1] has as its target gp120 (isolate not stated; FIG. 19) (HIV).
Test [2] concerns the target HIV Env of isolate CNE19 (HIV). Kind of test: cell-based or functional assay.
Test [3] has as its target HIV Env of isolate Ce704809221_1B3 (HIV). Kind of test: cell-based or functional assay.
Test [4] concerns the target HIV Env of isolate 249M_B10 (HIV). Kind of test: cell-based or functional assay.
Test [5] deals with HIV Env of isolate X1193_c1 (HIV). Kind of test: cell-based or functional assay.
Test [6] addresses HIV Env of isolate CNE5 (HIV). Kind of test: cell-based or functional assay.

B1: PGT-121 (antibody, V domains shown)
VH: QMQLQESGPGLVKPSETLSLTCSVSGASISDSYWSWIRRSPGKGLEWIGYVHKSGDTNYSPSLKSRVNLSLDTSKNQVSLSLVAATAADSGKYYCARTLHGRRIYGIVAFNEWFTYFYMDVWGNGTQVTVSS
VL: SDISVAPGETARISCGEKSLGSRAVQWYQHRAGQAPSLIIYNNQDRPSGIPERFSGSPDSPFGTTATLTITSVEAGDEADYYCHIWDSRVPTKWVFGGGTTLTVLG
As to B1, the “EC50 (read off the curve)” value in test [1] was approximately 0.6 µg/mL. Moreover, the “neutralization IC50” value amounted to 0.008 µg/mL in test [2] and 0.025 µg/mL in test [3].

B2: ePGT121.15.H1.L1 (antibody, V domains shown)
VH: QMQLQESGPGLVKPGETLSLTCSVSGASISSSYWSWLRETPGKGLEWIGYTHHSGDTNYAPSLKSRVHLGLHPSKNQVSLSLTSVTAADTAVYYCARTLHGRRIYGVVAFNEWFTYFYWEVWGNGTQVTVSS
VL: SDISVAPGETVRISCGGESIGSRAVQWYQHRAGQAPKLIIYNNQDRPPGIPERFSGSPDIDFGTTATLTITNVEAGDEATYYCHIWDSRRPTNWVFGGGTTLTVL
Regarding B2, in test [4], the “neutralization (Table 6 value)” value was found to be 0.00639. Also, the “neutralization IC50” value in test [5] came out at 0.0001 µg/mL.

B3: ePGT121.15.H6.L1 (antibody, V domains shown)
VH: QMQLQESGPGLVKPGETLSLTCSVSGASISSSYWSWLRETPGKGLEWIGYTHHSGDTNYAPSLKSRVHLGLHPSKNQVSLSLTSVTAADTAVYYCARTLHGRRIYGVVAFNEFFTYFYWEVWGKGTQVTVSS
VL: SDISVAPGETVRISCGGESIGSRAVQWYQHRAGQAPKLIIYNNQDRPPGIPERFSGSPDIDFGTTATLTITNVEAGDEATYYCHIWDSRRPTNWVFGGGTTLTVL
As for B3, the “neutralization (Table 6 value)” value in test [6] stood at 2.72; in test [4], 0.0118.
